Test results as given in the supplement of paper PMC7125110.
± gives the standard error. For some assays here: This sample holds only a part of the variants without activity.

B1: glmS ribozyme (parent)
chain: AUAAAAGCGCCAGAACUACAGAAAUGUAGUUGACGAGGAGGAGGUUUAUCGAAUUUUCGGCGGAUGCCUCCAAA

What was measured:
Conditions in all cases: with glucosamine-6-phosphate
glucosamine-6-phosphate [1] = variants of: B1; assay: kcat; higher = faster cleavage; RNA array
Summary of the method: (§1)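 Weighted Michaelis–Menten fits across concentrations supplied kcat and KM, based on kobs from one- or two-exponential decay fits to normalised per-tile medians. The data came from barcoded ribozyme variants transcribed in situ by E. coli RNA polymerase on sequenced MiSeq chips and tracked at 37 °C by a hybridised Cy3 probe. Glucosamine-6-phosphate (40 μM to 10 mM) in HEPES/KCl/Mg(OAc)2 buffer was flowed in.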

glucosamine-6-phosphate [2] = variants of: B1; assay: KM; higher = weaker cofactor use; RNA array
Summary of the method: as §1

glucosamine-6-phosphate [3] = variants of: B1; assay: self-cleavage kobs at 40 uM GlcN6P; higher = faster cleavage; RNA array
Summary of the method: as §1

glucosamine-6-phosphate [4] = variants of: B1; assay: self-cleavage kobs at 160 uM GlcN6P; higher = faster cleavage; RNA array
Summary of the method: as §1

glucosamine-6-phosphate [5] = variants of: B1; assay: self-cleavage kobs at 640 uM GlcN6P; higher = faster cleavage; RNA array
Summary of the method: as §1

glucosamine-6-phosphate [6] = variants of: B1; assay: self-cleavage kobs at 2500 uM GlcN6P; higher = faster cleavage; RNA array
Summary of the method: as §1

glucosamine-6-phosphate [7] = variants of: B1; assay: self-cleavage kobs at 10000 uM GlcN6P; higher = faster cleavage; RNA array
Summary of the method: as §1

Variant | kcat (glucosamine-6-phosphate [1]) [s⁻¹] | KM (glucosamine-6-phosphate [2]) [µM] | self-cleavage kobs at 40 uM GlcN6P (glucosamine-6-phosphate [3]) [s⁻¹] | self-cleavage kobs at 160 uM GlcN6P (glucosamine-6-phosphate [4]) [s⁻¹] | self-cleavage kobs at 640 uM GlcN6P (glucosamine-6-phosphate [5]) [s⁻¹] | self-cleavage kobs at 2500 uM GlcN6P (glucosamine-6-phosphate [6]) [s⁻¹] | self-cleavage kobs at 10000 uM GlcN6P (glucosamine-6-phosphate [7]) [s⁻¹]
G66U | 0.00275 ± 0.00056 | 2210 ± 580 | 5.79e-05 ± 1.2e-06 | 0.000159 ± 5.1e-06 | 0.00057 ± 1.2e-05 | 0.00179 ± 6.8e-05 | 0.00225 ± 6.3e-05
C70A C71A | 5.3e-05 ± 3.2e-06 | 181 ± 74 |  |  | 4.65e-05 ± 9.4e-06 | 4.82e-05 ± 7.4e-06 | 5.11e-05 ± 9.4e-06
A6C C16U C70U |  |  | < 1e-05 |  |  |  | 9.69e-05 ± 1.9e-05
U69G C70U | 4.03e-05 ± 6.8e-06 |  |  | 4.73e-05 ± 1.4e-05 | 4.66e-05 ± 9.6e-06 | 5.03e-05 ± 8.5e-06 | 2.88e-05 ± 6.8e-06
C68G C71U | < 1e-05 |  |  |  |  |  | 
A33G G38U |  | 47.2 ± 22 |  |  |  |  | 
A5U A6C A12G G32A G51U |  |  | < 1e-05 |  |  |  | < 1e-05
C68G U69C | 1.67e-05 ± 1.9e-06 |  |  |  |  |  | < 1e-05
G66C C67A | 0.000183 ± 3e-05 | 2370 ± 860 |  |  | 3.04e-05 ± 1.2e-05 | 0.000107 ± 1.6e-05 | 0.000137 ± 2.5e-05
A6G A12U G66A |  |  | < 1e-05 |  |  | 0.000132 ± 3.5e-05 | 7.44e-05 ± 2.2e-05
A6G U30G G35U U45C G59U |  |  | < 1e-05 |  |  |  | < 1e-05
A6C G40A |  |  | < 1e-05 | < 1e-05 |  |  | 2.46e-05 ± 9.8e-06
A6G G13C U31G A39C U45G |  |  | < 1e-05 |  |  |  | < 1e-05
G66C U69C | 0.000157 ± 7.2e-05 |  |  |  | 7.5e-05 ± 2.8e-05 | 6.79e-05 ± 1.5e-05 | 0.000137 ± 2.8e-05
A6U A15C G32A G63C A64U |  |  | < 1e-05 |  |  |  | 
A6G C8A G32C |  |  | < 1e-05 |  |  | < 1e-05 | 
A6U A36U C70U |  |  | < 1e-05 |  |  |  | 
A6C A12U A42U |  |  | < 1e-05 |  | < 1e-05 |  | < 1e-05
A6G C8G G40A |  |  | < 1e-05 |  |  |  | < 1e-05
G66A C68A | 0.000285 ± 7.9e-05 |  |  |  | 0.000138 ± 2.7e-05 | 0.000313 ± 5.4e-05 | 0.000216 ± 4.2e-05
A6C U46G |  |  | < 1e-05 | < 1e-05 |  |  | 
A6C U46A |  |  | < 1e-05 | < 1e-05 | < 1e-05 |  | 
A6C G41U U65A |  |  | < 1e-05 |  |  |  | 
A6G G38C |  |  | < 1e-05 | < 1e-05 | < 1e-05 | < 1e-05 | < 1e-05
G37C G40U |  | 5820 ± 2300 |  |  |  |  | 

Variant | kcat (glucosamine-6-phosphate [1]) [s⁻¹] | KM (glucosamine-6-phosphate [2]) [µM] | self-cleavage kobs at 40 uM GlcN6P (glucosamine-6-phosphate [3]) [s⁻¹] | self-cleavage kobs at 160 uM GlcN6P (glucosamine-6-phosphate [4]) [s⁻¹] | self-cleavage kobs at 640 uM GlcN6P (glucosamine-6-phosphate [5]) [s⁻¹] | self-cleavage kobs at 2500 uM GlcN6P (glucosamine-6-phosphate [6]) [s⁻¹] | self-cleavage kobs at 10000 uM GlcN6P (glucosamine-6-phosphate [7]) [s⁻¹]
A6C G44U C68G |  |  | < 1e-05 |  | < 1e-05 |  | < 1e-05
G66C C71U | 0.000716 ± 9.4e-05 | 975 ± 220 |  | 9.54e-05 ± 1.7e-05 | 0.000335 ± 5e-05 | 0.000494 ± 9.6e-05 | 0.000631 ± 0.00011
A6G G43U C67U |  |  | < 1e-05 | < 1e-05 | < 1e-05 |  | < 1e-05
A6C A15U A33U U69G |  |  | < 1e-05 |  |  |  | 
A6C U31C |  |  | < 1e-05 | < 1e-05 |  |  | 
A6C A14C A36C G37C G40U G66C C67G |  |  | < 1e-05 |  | < 1e-05 |  | 
G38U C71A |  | 35.8 ± 15 |  |  |  |  | 
A6C U49A G51U |  |  | < 1e-05 |  |  |  | < 1e-05
A6G A64C |  |  | < 1e-05 | < 1e-05 | < 1e-05 |  | < 1e-05
U31A U45A |  | 813 ± 360 | 0.000743 ± 0.0001 | 0.00207 ± 0.00071 | 0.00537 ± 0.0013 | 0.0106 ± 0.0024 | 0.0333 ± 0.01
G51U U65G |  | 63.4 ± 18 |  |  |  |  | 
A6U C8G A48U G62C |  |  | < 1e-05 |  |  |  | 
A6C G29A G40A G44U |  |  | < 1e-05 |  |  |  | < 1e-05
A36C G51U |  | 10.4 ± 3.3 |  |  |  |  | 
A6G G44U C61U |  |  | < 1e-05 | < 1e-05 | < 1e-05 | < 1e-05 | < 1e-05
A6C A52U C70U |  |  | < 1e-05 |  | < 1e-05 |  | 
A6G A15C G35A |  |  | < 1e-05 |  |  |  | < 1e-05
A6G U31G A42C A48G C67G |  |  | < 1e-05 |  |  |  | 
G66U C71G | 8.21e-05 ± 2.6e-06 | 2320 ± 240 |  |  |  | 4.34e-05 ± 1.2e-05 | 6.65e-05 ± 1.1e-05
A6G U46G C50G U65G C70A |  |  | < 1e-05 |  |  |  | 
A36U |  | 584 ± 170 |  |  |  |  | 
G66A C70U | 0.0162 ± 0.0065 |  | 0.00075 ± 0.0001 | 0.00153 ± 0.00021 | 0.00577 ± 0.00081 | 0.00738 ± 0.0024 | 0.0185 ± 0.0034
A6C A12G U69G |  |  | < 1e-05 | < 1e-05 |  |  | < 1e-05
A6U A12C U56A G62A |  |  | < 1e-05 |  |  |  | 
